The labels stand for the following.
T1: Nqo10 (Thermus thermophilus, UniProt Q56225 1-176)
T1 sequence (looked up): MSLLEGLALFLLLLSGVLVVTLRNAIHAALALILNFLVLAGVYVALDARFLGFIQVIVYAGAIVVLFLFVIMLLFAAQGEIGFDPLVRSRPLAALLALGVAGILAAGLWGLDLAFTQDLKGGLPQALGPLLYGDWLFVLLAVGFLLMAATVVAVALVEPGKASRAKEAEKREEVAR

T2: Nqo12 (Thermus thermophilus, UniProt Q56227 1-606)
T2 sequence (looked up): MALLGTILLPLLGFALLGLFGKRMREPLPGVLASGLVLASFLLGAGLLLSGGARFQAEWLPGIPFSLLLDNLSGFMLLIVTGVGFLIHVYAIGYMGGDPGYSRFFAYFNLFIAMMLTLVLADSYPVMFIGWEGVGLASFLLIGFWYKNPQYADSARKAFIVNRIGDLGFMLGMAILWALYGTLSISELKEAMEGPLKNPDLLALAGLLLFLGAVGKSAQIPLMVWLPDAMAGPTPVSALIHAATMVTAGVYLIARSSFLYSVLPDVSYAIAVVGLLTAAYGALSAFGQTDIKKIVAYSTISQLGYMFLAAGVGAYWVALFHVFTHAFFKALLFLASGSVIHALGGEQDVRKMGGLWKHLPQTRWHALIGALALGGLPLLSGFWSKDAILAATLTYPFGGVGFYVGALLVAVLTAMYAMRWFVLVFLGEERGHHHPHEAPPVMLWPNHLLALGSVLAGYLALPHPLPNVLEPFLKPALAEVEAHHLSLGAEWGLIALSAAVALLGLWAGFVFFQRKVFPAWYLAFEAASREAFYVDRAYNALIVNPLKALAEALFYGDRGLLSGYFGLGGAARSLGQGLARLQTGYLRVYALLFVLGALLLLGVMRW

T3: Nqo8 (Thermus thermophilus, UniProt Q60019 1-365)
T3 sequence (looked up): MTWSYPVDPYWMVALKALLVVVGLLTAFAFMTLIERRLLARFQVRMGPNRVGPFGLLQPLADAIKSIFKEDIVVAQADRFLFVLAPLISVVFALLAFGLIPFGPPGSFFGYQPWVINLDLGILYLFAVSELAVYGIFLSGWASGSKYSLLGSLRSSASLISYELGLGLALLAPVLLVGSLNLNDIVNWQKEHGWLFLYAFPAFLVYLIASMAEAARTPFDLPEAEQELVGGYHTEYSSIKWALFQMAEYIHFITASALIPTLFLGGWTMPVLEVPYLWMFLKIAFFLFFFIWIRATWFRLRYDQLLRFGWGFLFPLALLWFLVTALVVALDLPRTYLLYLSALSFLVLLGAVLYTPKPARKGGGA

B1: Nqo11 (natural protein, Thermus thermophilus, UniProt Q56226 1-95, looked up)
chain: MSYLLTSALLFALGVYGVLTRRTAILVFLSIELMLNAANLSLVGFARAYGLDGQVAALMVIAVAAAEVAVGLGLIVAIFRHRESTAVDDLSELRG
B2: Nqo14 (natural protein, Thermus thermophilus, UniProt Q56229 1-427, looked up)
chain: MTLAILAVFSVALTLLGFVLPPQGVKRATLLGLALALASLLLTWGKPFAFGPYAVDGVSQVFTLLALLGALWTVGLVRSGRFEFYLLVLYAALGMHLLASTRHLLLMLVALEALSLPLYALATWRRGQGLEAALKYFLLGALAAAFFLYGAALFYGATGSLVLGAPGEGPLYALALGLLLVGLGFKAALAPFHFWTPDVYQGSPTPVVLFMATSVKAAAFAALLRVAAPPEALALLVALSVVVGNLAALAQKEAKRLLAYSSIAHAGYMALALYTGNAQALGFYLLTYVLATGLAFAVLSQISPDRVPLEALRGLYRKDPLLGLAFLVAMLSLLGLPPLAGFWGKYLAFAEAARAGAWGVLVLALVTSAVSAYYYLGLGLAVFARPEETPFRPGPPWARAAVVAAGVLLLALGLLPGLVLPALAAGG
B3: Nqo13 (natural protein, Thermus thermophilus, UniProt Q56228 1-469, looked up)
chain: MVVLAVLLPVVFGALLLLGLPRALGVLGAGLSFLLNLYLFLTHPGGVAHAFQAPLLPGAGVYWAFGLDGLSALFFLTIALTVFLGALVARVEGRFLGLALLMEGLLLGLFAARDLLVFYVFFEAALIPALLMLYLYGGEGRTRALYTFVLFTLVGSLPMLAAVLGARLLSGSPTFLLEDLLAHPLQEEAAFWVFLGFALAFAIKTPLFPLHAWLPPFHQENHPSGLADALGTLYKVGVFAFFRFAIPLAPEGFAQAQGLLLFLAALSALYGAWVAFAAKDFKTLLAYAGLSHMGVAALGVFSGTPEGAMGGLYLLAASGVYTGGLFLLAGRLYERTGTLEIGRYRGLAQSAPGLAALALILFLAMVGLPGLSGFPGEFLTLLGAYKASPWLAALAFLSVIASAAYALTAFQKTFWEEGGSGVKDLAGAEWGFALLSVLALLLMGVFPGYFARGLHPLAEAFAKLLGGGA
B4: Nqo7 (natural protein, Thermus thermophilus, UniProt Q56217 1-119, looked up)
chain: MAPIQEYVGTLIYVGVALFIGVAALLVGALLGPKKPGRAKLMPYESGNDPAGEVKRFPVHFYVVAMLFILFDVEVAFLWPYAVSAGGLGLYGFLGVLAFTLLLFVGFLYEWWKGVMRWH

Common to all, as to experiment: crystal structure
Assay [1] addresses B2.
The target of assay [2] is T1, Nqo10.
Assay [3] concerns the target T2, Nqo12.
Assay [4] concerns the target T3, Nqo8.

Turning to B1, the binding result in assay [1] and in assay [2] was “binds” each time. With B2, in assay [3], the binding result is given as “binds”. The same measure, in the same setting: next, B3: “binds”.

With B4, the binding result in assay [4] is reported as “binds”.

Source of the values: paper PMC3672946 (Nature, 2013).
